# From PMC13393422, “Cross-regulation of amino acid synthesis and anaerobic electron transfer by MetR-mediated methionine signaling”
# T1: MetR (C-his-MetR) (Shewanella oneidensis MR-1, UniProt Q8EIM1 1-301)
# T1 sequence: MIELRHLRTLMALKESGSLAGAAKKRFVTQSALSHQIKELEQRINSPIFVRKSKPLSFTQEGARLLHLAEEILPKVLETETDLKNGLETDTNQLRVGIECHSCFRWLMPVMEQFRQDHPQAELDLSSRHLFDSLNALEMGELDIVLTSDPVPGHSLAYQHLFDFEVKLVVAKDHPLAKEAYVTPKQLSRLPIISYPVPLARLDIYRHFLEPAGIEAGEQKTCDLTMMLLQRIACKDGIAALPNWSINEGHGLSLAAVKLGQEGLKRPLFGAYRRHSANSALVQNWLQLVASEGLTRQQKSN
# B1: luxS probe (dsDNA)
# DNA 1: GCATCTGACTGATATGAGATGATTTCATCTTAAGTTATC
# DNA 2: GATAACTTAAGATGAAATCATCTCATATCAGTCAGATGC
# B2: omcA probe (dsDNA)
# DNA 1: CCACACATTAAATACGACTAATGAGATTTGTTCTTATTTG
# DNA 2: CAAATAAGAACAAATCTCATTAGTCGTATTTAATGTGTGG
# B3: omcA probe, unlabeled competitor (dsDNA)
# DNA 1: B2 DNA 1
# DNA 2: B2 DNA 2
# B4: cymA probe (dsDNA)
# DNA 1: GTATTAGCTGGAGTTGAAGTACTCTAACGCTCTGCTAAGC
# DNA 2: GCTTAGCAGAGCGTTAGAGTACTTCAACTCCAGCTAATA
# B5: glyA probe (dsDNA)
# DNA 1: CTCAACTCGGCATTGAGGTGCATTCAAGTTAAAACTGTAG
# DNA 2: CTACAGTTTTAACTTGAATGCACCTCAATGCCGAGTTGAG
# B6: dmsE probe (dsDNA)
# DNA 1: CTTATGGTGTTTTTGAGAATGATTTTCTTTTATTTGATTTC
# DNA 2: GAAATCAAATAAAAGAAAATCATTCTCAAAAACACCATAAG
# B7: metR probe (dsDNA)
# DNA 1: GATTTCAAGCGCAACATGAGCGAAATTCACTTGGAGTGATC
# DNA 2: GATCACTCCAAGTGAATTTCGCTCATGTTGCGCTTGAAATC
# B8: omcA-m probe (dsDNA)
# DNA 1: CCACACATTAAATACGACTAAGGGGATTTGGGGGTATTTG
# DNA 2: CAAATACCCCCAAATCCCCTTAGTCGTATTTAATGTGTGG
# Key:
# MetR (C-his-MetR) [1] = target: T1, MetR (C-his-MetR); assay: EMSA; 4 mM hCys; 500 ng MetR; 50 mM Tris-HCl pH 8.0, 0.5 mM EDTA, 2 mM MgSO4, 1 mM DTT, 100 ug/mL BSA, 10 ug/mL poly(dI-dC), 4 mM hCys, 20% glycerol, 1 nM Cy3 probe, 20 uL; 20 C 10 min; gel; conditions: protein: recombinant, tags: C-terminal His tag (pET-26b(+), NdeI/XhoI), chain copies: 4, label: 5'-Cy3 on strand 2
# MetR (C-his-MetR) [2] = target: T1, MetR (C-his-MetR); assay: EMSA; 4 mM hCys; 0-250 ng MetR (4B), 500 ng (4C); 50 mM Tris-HCl pH 8.0, 0.5 mM EDTA, 2 mM MgSO4, 1 mM DTT, 100 ug/mL BSA, 10 ug/mL poly(dI-dC), 4 mM hCys, 20% glycerol, 1 nM Cy3 probe, 20 uL; 20 C 10 min; gel; conditions: protein: recombinant; tags: C-terminal His tag (pET-26b(+), NdeI/XhoI); chain copies: 4; label: 5'-Cy3 on strand 2; blunt
# MetR (C-his-MetR) [3] = target: T1, MetR (C-his-MetR); assay: competition; 4 mM hCys; 5,000-fold excess over labeled omcA probe, shift disappeared; 50 mM Tris-HCl pH 8.0, 0.5 mM EDTA, 2 mM MgSO4, 1 mM DTT, 100 ug/mL BSA, 10 ug/mL poly(dI-dC), 4 mM hCys, 20% glycerol, 1 nM Cy3 probe, 20 uL; 20 C 10 min; gel; conditions: protein: recombinant; tags: C-terminal His tag (pET-26b(+), NdeI/XhoI); chain copies: 4; label: none; blunt
binder,measurement,setting,value
B1,binding result,MetR (C-his-MetR) [1]; blunt,binds
B2,binding result,MetR (C-his-MetR) [2],binds
B3,binding result,MetR (C-his-MetR) [3],binds
B4,binding result,MetR (C-his-MetR) [1]; 5' overhang 1 nt on strand 1 as printed (strand 2 is 39 nt; text says 40 bp),binds
B5,binding result,MetR (C-his-MetR) [1]; blunt,binds
B6,binding result,MetR (C-his-MetR) [1]; blunt,binds
B7,binding result,MetR (C-his-MetR) [1]; blunt,binds
B8,binding result,MetR (C-his-MetR) [1]; blunt,no binding
